From the supplement of paper PMC6757056
± gives the standard deviation of the averaged measurements.

B1: library; a variant is named by its letters at N, in order (parent)
chain: GCUGUCACCGAGAAACUGUGAAGUAUAUCUUAAACCUGGGCACUUAAAAGAUAUAUGGAGUUAGUAGUGCAACCUGCUCGGUCUGAUGAGUCCNNNNNNGGACGAAACAGC

What was measured:
cyclic di-GMP [1] = variants of: B1; experiment: normalized RNA/DNA level without ligand (relative to sTRSVctl = 100) (log10 (% of sTRSVctl)); HEK293T; ligand: cyclic di-GMP (c-di-GMP-II aptamer); higher = less ribozyme self-cleavage, higher mRNA level; settings: reporter: mCherry (pCS4076), ligand present: no
Procedure, shortened: (§1)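 HEK293T cells received ligand, where used, 1 h before being transfected with 4 µg per 6-well well of library plasmids encoding reporter-linked ribozyme switches. After 72 h, RNA was extracted with EDTA and sequenced. RNA level was derived from RNA reads per DNA read, normalized to a spiked-in non-cleaving sequence or the top sequences, then scaled and log-transformed. Values were ×100 then log10, the top set was 25 sequences, and the minimum was 100 DNA reads.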

cyclic di-GMP [2] = variants of: B1; experiment: normalized RNA/DNA level with ligand (relative to sTRSVctl = 100) (log10 (% of sTRSVctl)); HEK293T; ligand: cyclic di-GMP (c-di-GMP-II aptamer); ligand concentration (+) RNA-Seq: 1 mM; higher = less ribozyme self-cleavage, higher mRNA level; settings: reporter: mCherry (pCS4076), ligand present: yes
Procedure, shortened: as §1

cyclic di-GMP [3] = variants of: B1; experiment: FACS-Seq fitted mean relative fluorescence mCherry/BFP without ligand (log10 relative fluorescence); HEK293T; ligand: cyclic di-GMP (c-di-GMP-II aptamer); higher = higher reporter protein expression; settings: ligand present: no
Procedure, shortened: (§2)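 An mCherry reporter containing the ribozyme switch and an EF1α-BFP marker were introduced by lentivirus into HEK293T libraries. Cells were enriched, incubated 48 h with or without ligand, sorted into 6 bins by mCherry/BFP, and bin genomic DNA was PCR-amplified, barcoded and sequenced on MiSeq. Fluorescence represents the normalized fitted normal mean of the bin counts. Fitting was done on log10(mCherry/BFP), scaling to five spiked-in control ribozymes.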

cyclic di-GMP [4] = variants of: B1; experiment: FACS-Seq fitted mean relative fluorescence mCherry/BFP with ligand (log10 relative fluorescence); HEK293T; ligand: cyclic di-GMP (c-di-GMP-II aptamer); ligand concentration (+) FACS-Seq: 1 mM; higher = higher reporter protein expression; settings: ligand present: yes
Procedure, shortened: as §2

| Variant | normalized RNA/DNA level without ligand (log10) (cyclic di-GMP [1]) | normalized RNA/DNA level with ligand (log10) (cyclic di-GMP [2]) | FACS-Seq fitted mean (log10) (cyclic di-GMP [3]) | FACS-Seq fitted mean (log10) (cyclic di-GMP [4]) |
| --- | --- | --- | --- | --- |
| UGUGAA | 1.658 ± 0.012 | 1.85 ± 0.078 |  |  |
| UGUGAU | 1.676 ± 0.012 | 1.81 ± 0.13 | -0.736 ± 0.12 | -0.5759 ± 0.0014 |
| CACACG | 1.75 ± 0.036 | 1.83 ± 0.095 |  |  |
| CGUGUG | 1.678 ± 0.0082 | 1.8 ± 0.092 |  |  |
| AAUGUU | 1.66 ± 0.034 | 1.82 ± 0.076 | -0.4781 ± 0.0039 | -0.144 ± 0.16 |
| UCUGUA | 1.57 ± 0.089 | 1.77 ± 0.041 | -0.293 ± 0.01 | 0.0285 ± 0.0098 |
| GGCGUC | 1.68 ± 0.077 | 1.79 ± 0.17 |  |  |
| GCGGAC | 1.33 ± 0.11 | 1.46 ± 0.045 | -0.751 ± 0.049 | -0.511 ± 0.04 |
| GCAUCG | 1.59 ± 0.045 | 1.76 ± 0.099 |  |  |
| GAUUUC | 1.79 ± 0.13 | 1.9 ± 0.12 |  |  |
| GGAAUC | 1.55 ± 0.016 | 1.76 ± 0.09 |  |  |
| UGACCC | 1.798 ± 0.013 | 1.89 ± 0.087 |  |  |
| UAGCCA | 1.71 ± 0.04 | 1.86 ± 0.1 |  |  |
| UUGAAA | 1.607 ± 0.0064 | 1.76 ± 0.14 | -0.168 ± 0.075 | -0.0658 ± 0.065 |
| CUGGAG | 1.604 ± 0.006 | 1.77 ± 0.099 |  |  |
| UUUCGG | 1.8 ± 0.066 | 1.93 ± 0.12 |  |  |
| GCUCAU | 1.66 ± 0.0087 | 1.78 ± 0.1 | -0.503 ± 0.042 | -0.178 ± 0.097 |
| UUCAGG | 1.82 ± 0.048 | 1.88 ± 0.12 |  |  |
| AAGCCA | 1.63 ± 0.029 | 1.79 ± 0.16 | -0.228 ± 0.096 | -0.278 ± 0.12 |
| ACGAUG | 1.55 ± 0.084 | 1.72 ± 0.14 | -0.381 ± 0.017 | -0.168 ± 0.022 |
| ACGAUA | 1.45 ± 0.05 | 1.68 ± 0.12 |  |  |
| AAUUGA | 1.49 ± 0.096 | 1.72 ± 0.083 |  |  |
| CAAGCC | 1.76 ± 0.022 | 1.85 ± 0.087 |  |  |

| Variant | normalized RNA/DNA level without ligand (log10) (cyclic di-GMP [1]) | normalized RNA/DNA level with ligand (log10) (cyclic di-GMP [2]) | FACS-Seq fitted mean (log10) (cyclic di-GMP [3]) | FACS-Seq fitted mean (log10) (cyclic di-GMP [4]) |
| --- | --- | --- | --- | --- |
| CACGGG | 1.63 ± 0.04 | 1.8 ± 0.06 |  |  |
| CUUGAG | 1.68 ± 0.017 | 1.79 ± 0.09 |  |  |
| UGAAUU | 1.683 ± 0.0066 | 1.84 ± 0.13 |  |  |
| GAAACG | 1.61 ± 0.053 | 1.77 ± 0.069 |  |  |
| AGGUCU | 1.73 ± 0.045 | 1.85 ± 0.14 |  |  |
| UUACGU | 1.66 ± 0.03 | 1.8 ± 0.079 |  |  |
| UUACGA | 1.77 ± 0.046 | 1.87 ± 0.11 |  |  |
| AUCCUU | 1.74 ± 0.042 | 1.89 ± 0.081 |  |  |
| CCGGUG | 1.27 ± 0.12 | 1.46 ± 0.11 | -0.614 ± 0.039 | -0.397 ± 0.038 |
| GAGCCA | 1.79 ± 0.051 | 1.87 ± 0.1 |  |  |
| AUAAUU | 1.55 ± 0.027 | 1.72 ± 0.087 | -0.558 ± 0.032 | -0.213 ± 0.038 |
| AUUGGG | 1.54 ± 0.16 | 1.75 ± 0.078 |  |  |
| GAAGAU | 1.5 ± 0.088 | 1.65 ± 0.14 | -0.28 ± 0.1 | 0.0337 ± 0.016 |
| GCAAAC | 1.39 ± 0.064 | 1.57 ± 0.085 | -0.826 ± 0.056 | -0.0625 ± 0.35 |
| CCUUAG | 1.64 ± 0.026 | 1.83 ± 0.12 | -0.183 ± 0.044 | 0.161 ± 0.06 |
| GACACU | 1.705 ± 0.016 | 1.83 ± 0.12 | -0.276 ± 0.038 | -0.141 ± 0.073 |
| AGACGA | 1.54 ± 0.063 | 1.73 ± 0.12 | -0.409 ± 0.019 | -0.212 ± 0.013 |
| GCUAUC | 1.53 ± 0.045 | 1.66 ± 0.13 |  |  |
| CCGGAA | 1.28 ± 0.09 | 1.47 ± 0.12 | -0.512 ± 0.023 | -0.209 ± 0.03 |
| GACGAU | 1.59 ± 0.021 | 1.74 ± 0.14 | -0.37 ± 0.031 | -0.0677 ± 0.044 |
| GUCGGA | 1.51 ± 0.073 | 1.7 ± 0.071 | -0.0744 ± 0.052 | 0.242 ± 0.025 |
| AACGGG | 1.51 ± 0.084 | 1.68 ± 0.098 |  |  |
| UUAAUG | 1.6 ± 0.035 | 1.79 ± 0.071 | -0.155 ± 0.022 | 0.183 ± 0.0019 |
